From patent US20210047373A1, “BETA BARREL POLYPEPTIDES AND METHODS FOR THEIR USE” (UNIVERSITY OF WASHINGTON, priority 2018, published 2021)
Entries after “also recorded” stand apart in the source; their conditions may differ.

Key:
[1] = parameters: species or system E. coli
Excerpt: (§1) The sequences of these designs are not related to those of proteins with known structure (BLAST E-values ranged from 0.11 to 1.9 against the non-redundant protein database) and fold into the designed structure in silico (FIG. 2A). Synthetic genes encoding the designs were expressed in E. coli. […] The crystal structure of BB1 solved at 1.6 Å resolution was very close to the design model (within 1.4 Å RMSD over 99 residues of the 109 residues, FIG. 2F-G, deviations from the design are shown in FIG. 10) and had no close structural homolog in the PDB (highest TM-score <0.8). Essentially all of the key features of the design model are found in the crystal structure. The cross-section of the structure resembles the square cavity of the design model, which is not observed in any existing natural β-barrel crystal structures (FIG. 21), and is shaped by the designed glycine kinks. All 7 designed turns and β-bulges are correctly recapitulated in the crystal structure (FIG. 2H,J), along with the 3-10 helix and tryptophan corner (FIG. 2K).
(§2) Protein expression and purification. Genes encoding the nonfunctional β-barrel designs (41 from parametric design and 4 from fragment-base design) were synthesized and cloned into the pET-29 vector (GenScript, Inc). Plasmids were then transformed into BL21*(DE3) E. coli strain (NEB, Inc). […]

[2] = Size-exclusion chromatography (SEC, SEC-MALS); assay type: physicochemical; settings: oligomeric state
Excerpt: as §1, §2

[3] = Circular dichroism, thermal and GuHCl denaturation; assay type: physicochemical
Description: Circular dichroism (CD). Purified protein samples were prepared at 0.5 mg/ml in 20 mM Tris buffer (150 mM NaCl, pH8.0) or PBS buffer (25 mM phosphate, 150 mM NaCl, pH7.4). Wavelength scans from 195 nm to 260 nm were recorded at 25 degrees Celsius, 75 degrees Celsius, 95 degrees Celsius and cooling back to 25 degrees Celsius. Thermal denaturation was monitored at 220 nm or 226 nm from 25 degrees Celsius to 95 degrees Celsius. Near-UV wavelength scan from 240 nm to 320 nm and tryptophan fluorescence emission were recorded in the absence and presence of 5M guanidinium chloride (GuHCl). Chemical denaturation in GuHCl was monitored by both tryptophan fluorescence and near-UV CD signal at 285 nm. The concentration of the GuHCl stock solution was measured with a refractometer (Spectronic Instruments, Inc). Far-UV CD experiments were performed on an AVIV model 420 CD spectrometer (Aviv Biomedical, Inc). Near-UV CD and tryptophan fluorescence experiments were performed on a Jasco J-1500 CD spectrometer (Jasco, Inc). Protein concentrations were determined by 280 nm absorbance with a NanoDrop™spectrophotometer (ThermoScientific, Inc). Melting temperatures were estimated by smoothing the sparse data with a Savitsky-Golay filter of order 3 and approximating the smoothed data with a cubic spline to compute derivatives. Reported Tm values are the inflection points of the melting curves.

B1: BB1: SEQ ID NO 1; nonfunctional de novo β-barrel design, stable monomer (protein)
chain: MVDAAQYFPGTWEFRFRSSDGKEYRGTVEMQPRTPTEIEIRFKGQSSDGRPVEGRGSIEVRSPYEYRFEMQSSDGARWEGTLQVRSPDSVEVRFKSSDGREYSGEFRRQE
modifications: (1)..(1) optionally absent
Solubility [1]: yes | SEC [2]: monomer | β CD spectrum [3]: yes | Thermal stability ([3]; CD): unchanged at 95 °C; also recorded: stable at 95 degree Celsius; also recorded: does not temperature denature | Cooperative unfolding transition in guanidine ([3]; near UV CD signal and tryptophan fluorescence): 2.5 M
